{"source": "paper PMC9942802", "target": "tube protein gp14 (cyanophage Pam3)", "experiment": "cryo-EM structure"}
{"substance": "tube protein gp14 (natural protein)", "values": [{"measurement": "stoichiometry N", "result": 6}]}
